Measured values: paper PMC7725843, “Structural and biochemical analyses of an aminoglycoside 2′-N-acetyltransferase from Mycolicibacterium smegmatis” (Scientific Reports, 2020)

Target: the molecule itself
Test: AUC; analytical ultracentrifugation of apo-AAC(2′)-Id; 20 mM Tris-HCl (pH 8.0), 150 mM NaCl, 293 K, 40,000 rpm, monitored at 280 nm, SEDFIT

B1: Aminoglycoside 2′-N-acetyltransferase from Mycolicibacterium smegmatis [AAC(2′)-Id] (enzyme)
chain: MLTQHVSEARTRGAIHTARLIHTSDLDQETRDGARRMVIEAFRDPSGDSDFTDDFTDDDWDHALGGMHALISHHGALIAHGAVVQRRLMYRGPDGRGHALRCGYVEAVAVREDRRGDGLGTAVLDALEQVIRGAYQIGALSASDIARPMYIARGWLSWEGPTSVLTPTEGIVRTPEDDRSLFVLPVDLPDGLELDTAREITCDWRSGDPW
notes: also called apo-AAC(2′)-Id; AAC(2′) from M. smegmatis; source: E. coli BL21(DE3), purified (Ni-NTA, Q-Sepharose, thrombin cleavage, Superdex 200); not shown: His-tag, N-terminal, cleaved
stoichiometry N: 2
